This experiment deals with IbpS (iron-binding protein secreted), translocated region of D. dadantii IbpS (residues 28-372) (Dickeya dadantii 3937). Put plainly: SEC-MALS; Superdex S200 5/150 GL increase; 25 µl IbpS at 10 mg/ml in 50 mM Tris-Cl pH 7.0, 100 mM NaCl. A general note: In gel filtration, larger molecules generally elute earlier.

A word on the stoichiometry N: it is the number of molecules, sites or subunits per partner or assembly.

“IbpS (iron-binding protein secreted), translocated region of D. dadantii IbpS (residues 28-372) (natural protein)” had a stoichiometry N of 2.

The record behind these values is article PMC6813330.
